From PMC9458469 (The Journal of Cell Biology, 2022)
Each block holds one molecule with its values, some of them ahead of it.

What was measured:
[1] = target: Hsp-12.1 (purified) (C. elegans); assay: SEC
SEC = target: the molecule itself; assay: SEC

- stoichiometry N [1]: 4 subunits
Molecule: Hsp-12.1 (purified) (natural protein)

B1: Hsp-16.1 (purified) (natural protein, C. elegans, UniProt P34696 1-145, looked up)
chain: MSLYHYFRPAQRSVFGDLMRDMAQMERQFTPVCRGSPSESSEIVNNDQKFAINLNVSQFKPEDLKINLDGHTLSIQGEQELKTEHGYSKKSFSRVILLPEDVDVGAVASNLSEDGKLSIEAPKKEAIQGRSIPIQQAPVEQKTSE
- stoichiometry N (SEC): ~34 subunits
